Measurements taken from patent US20100297131A1.

What was measured:
[1] = molecular target: human erythrocytes, untreated (uncharacterized neuraminidase sensitive, trypsin resistant receptor on the surface of the erythrocyte) (human); assay: erythrocyte rosetting on transfected COS7 cells, normalized to 5% transfection efficiency
[2] = molecular target: neuraminidase-treated human erythrocytes (human); assay: erythrocyte rosetting on transfected COS7 cells, erythrocytes pretreated with neuraminidase

For “PfRH1 region VI (RVI) expressed on the surface of COS7 cells as a GFP fusion protein”, the binding activity (%) [1] was less than 10%.
“PfRH1 region IV (RIV) expressed on the surface of COS7 cells as a GFP fusion protein” showed a binding activity (%) [1] of less than 10%.
In the case of “PfRH1 region III (RIII) expressed on the surface of COS7 cells as a GFP fusion protein”, the binding activity (%) [1] is reported as less than 10%.
“PfRH1 region II (RII) expressed on the surface of COS7 cells as a GFP fusion protein (from UniProt P86148 334-1000)” gave a binding activity (%) [1] greater than 70% and a fold reduction of binding against untreated erythrocytes [2] of 10 fold.
